{"source": "patent USRE50631", "about": "(VELOSBIO, dated 2025)", "key": {"[1]": {"target": "T1, human receptor tyrosine kinase like orphan receptor 1 (ROR1) (human, UniProt Q01973 30-937)", "T1 sequence (Q01973 30-937)": "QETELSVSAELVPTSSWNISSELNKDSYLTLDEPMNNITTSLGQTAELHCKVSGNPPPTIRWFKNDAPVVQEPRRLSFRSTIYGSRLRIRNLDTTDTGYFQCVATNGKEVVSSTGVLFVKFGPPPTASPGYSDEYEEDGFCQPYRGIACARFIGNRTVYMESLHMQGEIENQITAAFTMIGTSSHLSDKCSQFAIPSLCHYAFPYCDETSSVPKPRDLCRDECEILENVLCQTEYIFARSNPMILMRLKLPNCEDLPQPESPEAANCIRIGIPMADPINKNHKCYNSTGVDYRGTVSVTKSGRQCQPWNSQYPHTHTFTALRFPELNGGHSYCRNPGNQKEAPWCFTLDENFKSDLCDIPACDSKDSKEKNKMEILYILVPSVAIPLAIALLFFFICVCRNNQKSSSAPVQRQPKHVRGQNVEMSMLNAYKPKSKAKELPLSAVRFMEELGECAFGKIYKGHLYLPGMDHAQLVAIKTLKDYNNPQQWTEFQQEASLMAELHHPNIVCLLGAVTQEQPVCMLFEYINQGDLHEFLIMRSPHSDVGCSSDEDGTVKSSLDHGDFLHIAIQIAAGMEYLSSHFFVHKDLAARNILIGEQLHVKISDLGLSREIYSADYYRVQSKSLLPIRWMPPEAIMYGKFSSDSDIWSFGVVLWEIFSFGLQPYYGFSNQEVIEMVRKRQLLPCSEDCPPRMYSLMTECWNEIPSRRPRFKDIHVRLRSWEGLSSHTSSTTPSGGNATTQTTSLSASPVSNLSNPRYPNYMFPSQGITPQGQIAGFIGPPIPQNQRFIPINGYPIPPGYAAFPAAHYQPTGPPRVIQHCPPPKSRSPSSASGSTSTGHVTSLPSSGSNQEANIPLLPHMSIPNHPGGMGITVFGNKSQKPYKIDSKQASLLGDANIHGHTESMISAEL", "assay": "cell-based or functional assay"}, "[2]": {"target": "T1, human receptor tyrosine kinase like …", "assay": "binding to Jeko cells; column 'ADC-M Binding KD (nM)', method not described"}, "[3]": {"target": "T1, human receptor tyrosine kinase like …", "assay": "binding to Jeko cells; column 'ADC-O Binding KD (nM)', method not described"}, "[4]": {"target": "T1, human receptor tyrosine kinase like …", "assay": "flow cytometry on Jeko-1 cells, PE anti-human IgG secondary, % maximal binding"}, "[5]": {"target": "T1, human receptor tyrosine kinase like …", "assay": "flow cytometry on Jeko-1 cells (FIG. 3B)"}, "[6]": {"target": "T1, human receptor tyrosine kinase like …", "assay": "flow cytometry on Jeko-1 cells (FIG. 3A)"}, "[7]": {"target": "T1, human receptor tyrosine kinase like …", "assay": "flow cytometry on MDA-MB-231 cells, PE anti-human IgG secondary, % maximal binding"}, "[8]": {"target": "T1, human receptor tyrosine kinase like …", "assay": "binding to Jeko cells; column 'ADC-N Binding KD (nM)', method not described"}, "[9]": {"target": "T1, human receptor tyrosine kinase like …", "assay": "binding to Jeko cells; column 'ADC-L Binding KD (nM)', method not described"}}}
{"binder": "ADC-E (antibody, human IgG1, kappa, V domains shown, SC-VC-PAB-MMAE bonded via lysine residues of the antibody (chain and positions not stated)) VH: QVQLQESGPGLVKPSQTLSLTCTVSGYAFTAYNIHWVRQAPGQGLEWMGSFDPYDGGSSYNQKFKDRLTISKDTSKNQVVLTMTNMDPVDTATYYCARGWYYFDYWGHGTLVTVSS VL: DIVMTQTPLSLPVTPGEPASISCRASKSISKYLAWYQQKPGQAPRLLIYSGSTLQSGIPPRFSGSGYGTDFTLTINNIESEDAAYYFCQQHDESPYTFGEGTKVEIKR", "values": [{"measurement": "IC50, cell viability (CellTiter-Glo, 72 h), Bt549 cells", "setting": "[1]", "result": 74.4, "unit": "nM"}, {"measurement": "IC50, cell viability (CellTiter-Glo, 72 h), DOHH2 cells", "setting": "[1]", "result": 89.6, "unit": "nM"}, {"measurement": "IC50, cell viability (CellTiter-Glo, 72 h), HBL-1 cells", "setting": "[1]", "result": 147, "unit": "nM"}, {"measurement": "IC50, cell viability (CellTiter-Glo, 72 h), JHOM1 cells", "setting": "[1]", "result": 32.9, "unit": "nM"}, {"measurement": "IC50, cell viability (CellTiter-Glo, 72 h), MDA-MB-468 cells", "setting": "[1]", "result": 80.1, "unit": "nM"}, {"measurement": "IC50, cell viability (CellTiter-Glo, 72 h), SKOvr3 cells", "setting": "[1]", "result": 201, "unit": "nM"}, {"measurement": "IC50, cell viability (CellTiter-Glo, 72 h), TMD-8 cells", "setting": "[1]", "result": 94.3, "unit": "nM"}, {"measurement": "IC50, cell viability (CellTiter-Glo, 72 h), TOV112D cells", "setting": "[1]", "result": 57.8, "unit": "nM"}]}
{"binder": "ADC-F (antibody, human IgG1, kappa, V domains shown, SC-VC-PAB-DM1 bonded via lysine residues of the antibody (chain and positions not stated)) VH: QVQLQESGPGLVKPSQTLSLTCTVSGYAFTAYNIHWVRQAPGQGLEWMGSFDPYDGGSSYNQKFKDRLTISKDTSKNQVVLTMTNMDPVDTATYYCARGWYYFDYWGHGTLVTVSS VL: DIVMTQTPLSLPVTPGEPASISCRASKSISKYLAWYQQKPGQAPRLLIYSGSTLQSGIPPRFSGSGYGTDFTLTINNIESEDAAYYFCQQHDESPYTFGEGTKVEIKR", "values": [{"measurement": "IC50, cell viability (CellTiter-Glo, 72 h), A2008 cells", "setting": "[1]", "result": "> 1000", "unit": "nM"}, {"measurement": "IC50, cell viability (CellTiter-Glo, 72 h), Bt549 cells", "setting": "[1]", "result": "> 1000", "unit": "nM"}, {"measurement": "IC50, cell viability (CellTiter-Glo, 72 h), DOHH2 cells", "setting": "[1]", "result": "> 1000", "unit": "nM"}, {"measurement": "IC50, cell viability (CellTiter-Glo, 72 h), HBL-1 cells", "setting": "[1]", "result": "> 1000", "unit": "nM"}, {"measurement": "IC50, cell viability (CellTiter-Glo, 72 h), HCC1187 cells", "setting": "[1]", "result": "> 1000", "unit": "nM"}, {"measurement": "IC50, cell viability (CellTiter-Glo, 72 h), JHOM1 cells", "setting": "[1]", "result": "> 1000", "unit": "nM"}, {"measurement": "IC50, cell viability (CellTiter-Glo, 72 h), MDA-MB-468 cells", "setting": "[1]", "result": "> 1000", "unit": "nM"}, {"measurement": "IC50, cell viability (CellTiter-Glo, 72 h), SKOvr3 cells", "setting": "[1]", "result": "> 1000", "unit": "nM"}, {"measurement": "IC50, cell viability (CellTiter-Glo, 72 h), TMD-8 cells", "setting": "[1]", "result": "> 1000", "unit": "nM"}, {"measurement": "IC50, cell viability (CellTiter-Glo, 72 h), TOV112D cells", "setting": "[1]", "result": "> 1000", "unit": "nM"}]}
{"binder": "ADC-M (antibody, human IgG1, kappa, V domains shown, MAL-Phe-C4-VC-PAB-MMAE bonded via cysteine residues of the antibody (chain and positions not stated), Antibody-drug conjugate of Ab1; also called Ab1-MAL-Phe-C4-VC-PAB-MMAE) VH: QVQLQESGPGLVKPSQTLSLTCTVSGYAFTAYNIHWVRQAPGQGLEWMGSFDPYDGGSSYNQKFKDRLTISKDTSKNQVVLTMTNMDPVDTATYYCARGWYYFDYWGHGTLVTVSS VL: DIVMTQTPLSLPVTPGEPASISCRASKSISKYLAWYQQKPGQAPRLLIYSGSTLQSGIPPRFSGSGYGTDFTLTINNIESEDAAYYFCQQHDESPYTFGEGTKVEIKR", "values": [{"measurement": "Kd", "setting": "[2]", "result": 0.12, "unit": "nM"}]}
{"binder": "ADC-O (antibody, human IgG1, kappa, V domains shown, MAL-C2-Gly3-EDA-PNU-159682 bonded via cysteine residues of the antibody (chain and positions not stated), Antibody-drug conjugate of Ab1; also called Ab1-MAL-C2-Gly3-EDA-PNU-159682) VH: QVQLQESGPGLVKPSQTLSLTCTVSGYAFTAYNIHWVRQAPGQGLEWMGSFDPYDGGSSYNQKFKDRLTISKDTSKNQVVLTMTNMDPVDTATYYCARGWYYFDYWGHGTLVTVSS VL: DIVMTQTPLSLPVTPGEPASISCRASKSISKYLAWYQQKPGQAPRLLIYSGSTLQSGIPPRFSGSGYGTDFTLTINNIESEDAAYYFCQQHDESPYTFGEGTKVEIKR", "values": [{"measurement": "Kd", "setting": "[3]", "result": 0.12, "unit": "nM"}]}
{"binder": "Ab1 (antibody, human IgG1, kappa, V domains shown, also called unconjugated Ab1; parental antibody Ab1) VH: QVQLQESGPGLVKPSQTLSLTCTVSGYAFTAYNIHWVRQAPGQGLEWMGSFDPYDGGSSYNQKFKDRLTISKDTSKNQVVLTMTNMDPVDTATYYCARGWYYFDYWGHGTLVTVSS VL: DIVMTQTPLSLPVTPGEPASISCRASKSISKYLAWYQQKPGQAPRLLIYSGSTLQSGIPPRFSGSGYGTDFTLTINNIESEDAAYYFCQQHDESPYTFGEGTKVEIKR", "values": [{"measurement": "EC50", "setting": "[4]", "result": 0.0136, "unit": "µg/mL"}, {"measurement": "EC50", "setting": "[5]", "result": 0.0165, "unit": "µg/mL"}, {"measurement": "EC50", "setting": "[6]", "result": 0.0164, "unit": "µg/mL"}, {"measurement": "EC50", "setting": "[7]", "result": 0.0328, "unit": "µg/mL"}]}
{"binder": "ADC-N (antibody, human IgG1, kappa, V domains shown, MAL-PEG4-VC-PAB-DMEA-PNU-159682 bonded via cysteine residues of the antibody (chain and positions not stated), Antibody-drug conjugate of Ab1; also called Ab1-MAL-PEG4-VC-PAB-DMEA-PNU-159682) VH: QVQLQESGPGLVKPSQTLSLTCTVSGYAFTAYNIHWVRQAPGQGLEWMGSFDPYDGGSSYNQKFKDRLTISKDTSKNQVVLTMTNMDPVDTATYYCARGWYYFDYWGHGTLVTVSS VL: DIVMTQTPLSLPVTPGEPASISCRASKSISKYLAWYQQKPGQAPRLLIYSGSTLQSGIPPRFSGSGYGTDFTLTINNIESEDAAYYFCQQHDESPYTFGEGTKVEIKR", "values": [{"measurement": "Kd", "setting": "[8]", "result": 0.13, "unit": "nM"}]}
{"binder": "ADC-L (antibody, human IgG1, kappa, V domains shown, MAL-DPR-VC-PAB-MMAE bonded via cysteine residues of the antibody (chain and positions not stated), Antibody-drug conjugate of Ab1; also called Ab1-MAL-DPR-VC-PAB-MMAE) VH: QVQLQESGPGLVKPSQTLSLTCTVSGYAFTAYNIHWVRQAPGQGLEWMGSFDPYDGGSSYNQKFKDRLTISKDTSKNQVVLTMTNMDPVDTATYYCARGWYYFDYWGHGTLVTVSS VL: DIVMTQTPLSLPVTPGEPASISCRASKSISKYLAWYQQKPGQAPRLLIYSGSTLQSGIPPRFSGSGYGTDFTLTINNIESEDAAYYFCQQHDESPYTFGEGTKVEIKR", "values": [{"measurement": "Kd", "setting": "[9]", "result": 0.15, "unit": "nM"}]}
